Patent US20220378829A1 (CRISPR THERAPEUTICS, published 2022)

Target: T1, CD70 on human cancer cell lines (A498, ACHN, SK-OV-3, Hs 766T, NCI-H1975, Calu-1, DU 145, SNU-1, MM.1S, HuT78) (human, UniProt P32970 1-193)
T1 sequence (looked up): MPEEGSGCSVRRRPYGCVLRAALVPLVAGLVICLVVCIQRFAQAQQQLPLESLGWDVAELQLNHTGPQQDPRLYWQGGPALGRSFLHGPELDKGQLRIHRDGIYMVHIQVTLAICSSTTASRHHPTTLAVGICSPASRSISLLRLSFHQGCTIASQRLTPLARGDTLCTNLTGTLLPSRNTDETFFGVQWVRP
Assay: cell-based or functional assay

- cell lysis of A498 cells by TRAC-/β2M-/CD70-/anti-CD70 CAR+ T cells, T cell:A498 ratios 1:1 and 0.5:1, 24 h (Cell titer-Glo): > 90%
- cell lysis of A498 cells by TRAC-/β2M-/anti-CD70 CAR+ T cells (2×KO), T cell:A498 ratios 1:1 and 0.5:1, 24 h (Cell titer-Glo): < 90%
B1: anti-CD70 CAR (CD70B scFv with 41BB), expressed on the surface of gene-edited human T cells (CTX130: TRAC-/β2M-/CD70-/anti-CD70 CAR+ T cells) (other)
chain: QVQLVQSGAEVKKPGASVKVSCKASGYTFTNYGMNWVRQAPGQGLKWMGWINTYTGEPTYADAFKGRVTMTRDTSISTAYMELSRLRSDDTAVYYCARDYGDYGMDYWGQGTTVTVSSGGGGSGGGGSGGGGSGDIVMTQSPDSLAVSLGERATINCRASKSVSTSGYSFMHWYQQKPGQPPKLLIYLASNLESGVPDRFSGSGSGTDFTLTISSLQAEDVAVYYCQHSREVPWTFGQGTKVEIKSAAAFVPVFLPAKPTTTPAPRPPTPAPTIASQPLSLRPEACRPAAGGAVHTRGLDFACDIYIWAPLAGTCGVLLLSLVITLYCNHRNRKRGRKKLLYIFKQPFMRPVQTTQEEDGCSCRFPEEEEGGCELRVKFSRSADAPAYQQGQNQLYNELNLGRREEYDVLDKRRGRDPEMGGKPRRKNPQEGLYNELQKDKMAEAYSEIGMKGERRRGKGHDGLYQGLSTATKDTYDALHMQALPPR
